The text below walks through data of article PMC5116005 (Journal of molecular biology, 2016).

Ends that are not written are not given here.

One assay has as its system NtrC1^C oligomer. The experiment in a line: Native PAGE gel binding assay, dye fluorescence visualized at 488 nm. As to conditions: 0.16 µM Alexa488-σ54(16-41), ADP-BeF3− at 500 µM, native PAGE 4–15%, Typhoon 488 nm. Further details: species or system Aquifex aeolicus.
Assay [1] concerns the target T1, NtrC1^C(121–387), central AAA+ ATPase domain of A. aeolicus NtrC1 (A. aeolicus, UniProt O67198 121-387).
T1 sequence (looked up): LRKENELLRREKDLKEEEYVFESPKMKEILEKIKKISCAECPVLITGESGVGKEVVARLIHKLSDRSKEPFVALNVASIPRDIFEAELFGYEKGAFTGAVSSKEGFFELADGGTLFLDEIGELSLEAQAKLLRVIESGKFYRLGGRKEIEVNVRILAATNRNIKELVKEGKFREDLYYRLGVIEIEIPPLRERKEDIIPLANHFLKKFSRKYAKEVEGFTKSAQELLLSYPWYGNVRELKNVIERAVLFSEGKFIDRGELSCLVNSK
Briefly: fluorescence polarisation. On the technique in general: In fluorescence polarisation assays a small probe gives low polarisation when free and higher when bound to something large.

The target in assay [2] is Alexa488-full length σ^54 (K2C) (UniProt P24255). The experiment in a line: fluorescence polarisation.

Consider “Alexa488-σ^54(16-41): σ54(16-41) with N-terminal Trp-Cys, cysteine derivatized with Alexa Fluor 488 maleimide (WC(Alexa Fluor 488 maleimide)LLLKQDLELLTYQTQELEKLIHEEVL)”, for which, in the assay on NtrC1^C oligomer, the “Binding to NtrC1^C oligomer on native gel with ADP-BeF3−” value is given as “bound to NtrC1^C”.

B1: Alexa488-σ^54(16-41) (A.a. σ^54(WC-16-41)) (peptide)
chain: WC(Alexa Fluor 488 maleimide)LLLKQDLELLTYQTQELEKLIHEEVL
With B1, in assay [1], the dissociation constant (Kd) – broadly, a measure of binding affinity in units of concentration – stood at 1000 nM.

B2: NtrC1^C(121–387), central AAA+ ATPase domain of A. aeolicus NtrC1 (domain or fragment)
chain: LRKENELLRREKDLKEEEYVFESPKMKEILEKIKKISCAECPVLITGESGVGKEVVARLIHKLSDRSKEPFVALNVASIPRDIFEAELFGYEKGAFTGAVSSKEGFFELADGGTLFLDEIGELSLEAQAKLLRVIESGKFYRLGGRKEIEVNVRILAATNRNIKELVKEGKFREDLYYRLGVIEIEIPPLRERKEDIIPLANHFLKKFSRKYAKEVEGFTKSAQELLLSYPWYGNVRELKNVIERAVLFSEGKFIDRGELSCLVNSK
B2: the equilibrium dissociation constant (Kd) in assay [2] is 2000 nM.
